Data taken from patent US20060259987A1 (UNIVERSITY OF UTAH RESEARCH FOUNDATION, published 2006).

Columns and labels:
Experiment in all cases: cell-based or functional assay
factor Xa = factor Xa (human, UniProt P00742 41-179; P00742 235-488, limits assumed)
thrombin = thrombin (human, UniProt P00734 328-622)
human thrombin = human thrombin (human, UniProt P00734 328-622)
human factor Xa = human factor Xa (human, UniProt P00742 41-179; P00742 235-488, limits assumed)
human factor Xa, sequence (P00742 41-179 limits assumed, chain 1 of 2): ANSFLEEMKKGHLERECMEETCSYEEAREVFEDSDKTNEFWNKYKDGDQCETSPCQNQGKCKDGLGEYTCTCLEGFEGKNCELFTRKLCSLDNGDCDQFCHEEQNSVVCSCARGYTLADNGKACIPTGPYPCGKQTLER
human factor Xa, sequence (P00742 235-488 limits assumed, chain 2 of 2): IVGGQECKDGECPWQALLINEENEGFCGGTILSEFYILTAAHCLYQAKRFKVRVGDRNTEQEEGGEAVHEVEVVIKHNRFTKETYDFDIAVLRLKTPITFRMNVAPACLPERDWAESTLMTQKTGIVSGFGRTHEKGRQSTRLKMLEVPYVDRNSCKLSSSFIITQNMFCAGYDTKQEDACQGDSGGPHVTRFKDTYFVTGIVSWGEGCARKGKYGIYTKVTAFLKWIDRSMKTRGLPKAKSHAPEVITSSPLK

factor Xa, sequence (P00742 41-179 limits assumed, chain 1 of 2): as the sequence (P00742 41-179 limits assumed, chain 1 of 2) above
factor Xa, sequence (P00742 235-488 limits assumed, chain 2 of 2): as the sequence (P00742 235-488 limits assumed, chain 2 of 2) above

B1: LEAI.477 (other)
chain: SPVDICTAKPRDIPMNPMCIYRSPEKKATEDEGSEQKIPEATNRRVWELSKANSRFATTFYQHLADSKNDNDNIFLSPLSISTAFAMTKLGACNDTLQQLMEVFKFDTISEKTSDQIHFFFAKLNCRLYRKANKASKLVSANRLFGDKSLTFNETYQDISELVYGAKLQPLDFKENAEQSRAAINKWVSNKTEGRITDVIPSEAINELTVLVLVNTIYFKGLWKSKFSPENTRKELFYKADGESCSASMMYQEGKFRYRRVAEGTQVLELPFKGDDITMVLILPKPEKSLAKVEKELTPEVLQEWLDELEEMMLVVHMPRFRIEDGFSLKEQLQDMGLVDLFSPEKSKLPGIVAEGRDDLYVSDAFHKAFLEVNEEGSEAAASTALEAPGRSLNPNRVTFKANRPFLVFIREVPLNTIIFMGRVANPCVK
IC50 fXa/UFH; HCA #4 (factor Xa): 18 nM | IC50 IIa/UFH; HCA #4 (thrombin): 333 nM

B2: LEAQ.514 (other)
chain: SPVDICTAKPRDIPMNPMCIYRSPEKKATEDEGSEQKIPEATNRRVWELSKANSRFATTFYQHLADSKNDNDNIFLSPLSISTAFAMTKLGACNDTLQQLMEVFKFDTISEKTSDQIHFFFAKLNCRLYRKANKASKLVSANRLFGDKSLTFNETYQDISELVYGAKLQPLDFKENAEQSRAAINKWVSNKTEGRITDVIPSEAINELTVLVLVNTIYFKGLWKSKFSPENTRKELFYKADGESCSASMMYQEGKFRYRRVAEGTQVLELPFKGDDITMVLILPKPEKSLAKVEKELTPEVLQEWLDELEEMMLVVHMPRFRIEDGFSLKEQLQDMGLVDLFSPEKSKLPGIVAEGRDDLYVSDAFHKAFLEVNEEGSEAAASTVLEAQGRSLNPNRVTFKANRPFLVFIREVPLNTIIFMGRVANPCVK
IC50 IIa/UFH (HCA #6) (human thrombin): 105 nM | IC50 fXa/UFH (HCA #6) (human factor Xa): 40 nM

B3: LEAI.473 (other)
chain: SPVDICTAKPRDIPMNPMCIYRSPEKKATEDEGSEQKIPEATNRRVWELSKANSRFATTFYQHLADSKNDNDNIFLSPLSISTAFAMTKLGACNDTLQQLMEVFKFDTISEKTSDQIHFFFAKLNCRLYRKANKASKLVSANRLFGDKSLTFNETYQDISELVYGAKLQPLDFKENAEQSRAAINKWVSNKTEGRITDVIPSEAINELTVLVLVNTIYFKGLWKSKFSPENTRKELFYKADGESCSASMMYQEGKFRYRRVAEGTQVLELPFKGDDITMVLILPKPEKSLAKVEKELTPEVLQEWLDELEEMMLVVHMPRFRIEDGFSLKEQLQDMGLVDLFSPEKSKLPGIVAEGRDDLYVSDAFHKAFLEVNEEGSEAAASTALEADGRSLNPNRVTFKANRPFLVFIREVPLNTIIFMGRVANPCVK
IC50 fXa/UFH; HCA #4 (factor Xa): 28 nM | IC50 IIa/UFH; HCA #4 (thrombin): > 1000 nM

B4: LEAI.481 (other)
chain: SPVDICTAKPRDIPMNPMCIYRSPEKKATEDEGSEQKIPEATNRRVWELSKANSRFATTFYQHLADSKNDNDNIFLSPLSISTAFAMTKLGACNDTLQQLMEVFKFDTISEKTSDQIHFFFAKLNCRLYRKANKASKLVSANRLFGDKSLTFNETYQDISELVYGAKLQPLDFKENAEQSRAAINKWVSNKTEGRITDVIPSEAINELTVLVLVNTIYFKGLWKSKFSPENTRKELFYKADGESCSASMMYQEGKFRYRRVAEGTQVLELPFKGDDITMVLILPKPEKSLAKVEKELTPEVLQEWLDELEEMMLVVHMPRFRIEDGFSLKEQLQDMGLVDLFSPEKSKLPGIVAEGRDDLYVSDAFHKAFLEVNEEGSEAAASTALEAGGRSLNPNRVTFKANRPFLVFIREVPLNTIIFMGRVANPCVK
IC50 fXa/UFH; HCA #3 (factor Xa): 24 nM | IC50 IIa/UFH; HCA #3 (thrombin): 220 nM

B5: 13C.432 (other)
chain: SPVDICTAKPRDIPMNPMCIYRSPEKKATEDEGSEQKIPEATNRRVWELSKANSRFATTFYQHLADSKNDNDNIFLSPLSISTAFAMTKLGACNDTLQQLMEVFKFDTISEKTSDQIHFFFAKLNCRLYRKANKASKLVSANRLFGDKSLTFNETYQDISELVYGAKLQPLDFKENAEQSRAAINKWVSNKTEGRITDVIPSEAINELTVLVLVNTIYFKGLWKSKFSPENTRKELFYKADGESCSASMMYQEGKFRYRRVAEGTQVLELPFKGDDITMVLILPKPEKSLAKVEKELTPEVLQEWLDELEEMMLVVHMPRFRIEDGFSLKEQLQDMGLVDLFSPEKSKLPGIVAEGRDDLYVSDAFHKAFLEVNEEGSEAAASTELEIAGRSLNPNRVTFKANRPFLVFIREVPLNTIIFMGRVANPCVK
IC50 IIa/UFH; HCA #2 (human thrombin): 460 nM | IC50 fXa/UFH; HCA #2 (human factor Xa): 45 nM

B6: LEAI.471 (other)
chain: SPVDICTAKPRDIPMNPMCIYRSPEKKATEDEGSEQKIPEATNRRVWELSKANSRFATTFYQHLADSKNDNDNIFLSPLSISTAFAMTKLGACNDTLQQLMEVFKFDTISEKTSDQIHFFFAKLNCRLYRKANKASKLVSANRLFGDKSLTFNETYQDISELVYGAKLQPLDFKENAEQSRAAINKWVSNKTEGRITDVIPSEAINELTVLVLVNTIYFKGLWKSKFSPENTRKELFYKADGESCSASMMYQEGKFRYRRVAEGTQVLELPFKGDDITMVLILPKPEKSLAKVEKELTPEVLQEWLDELEEMMLVVHMPRFRIEDGFSLKEQLQDMGLVDLFSPEKSKLPGIVAEGRDDLYVSDAFHKAFLEVNEEGSEAAASTALEARGRSLNPNRVTFKANRPFLVFIREVPLNTIIFMGRVANPCVK
IC50 fXa/UFH; HCA #2 (factor Xa): 275 nM | IC50 fXa/UFH; HCA #3 (factor Xa): 320 nM | rsd. Xa catG; CA #12; stg1 conc 200 (factor Xa): 48% | rsd. Xa catG; CA #14; stg1 conc 200 (factor Xa): 59% | rsd. Xa catG; CA #15; stg1 conc 200 (factor Xa): 82% | rsd. Xa hne; CA #12; stg1 conc 200 (factor Xa): 86% | rsd. Xa hne; CA #14; stg1 conc 200 (factor Xa): 100% | rsd. Xa hne; CA #15; stg1 conc 200 (factor Xa): 103% | rsd. Xa no add; CA #12; stg1 conc 200 (factor Xa): 45% | rsd. Xa no add; CA #14; stg1 conc 200 (factor Xa): 44% | rsd. Xa no add; CA #15; stg1 conc 200 (factor Xa): 57% | IC50 IIa/UFH; HCA #2 (thrombin): 37 nM | IC50 IIa/UFH; HCA #3 (thrombin): 35 nM | rsd. IIa catG; CA #12; stg1 conc 200 (thrombin): 0% | rsd. IIa catG; CA #14; stg1 conc 200 (thrombin): 1% | rsd. IIa catG; CA #15; stg1 conc 200 (thrombin): 1% | rsd. IIa hne; CA #12; stg1 conc 200 (thrombin): 62% | rsd. IIa hne; CA #14; stg1 conc 200 (thrombin): 41% | rsd. IIa hne; CA #15; stg1 conc 200 (thrombin): 65% | rsd. IIa no add; CA #12; stg1 conc 200 (thrombin): 0% | rsd. IIa no add; CA #14; stg1 conc 200 (thrombin): 2% | rsd. IIa no add; CA #15; stg1 conc 200 (thrombin): 2%

B7: LEAQ.521 (other)
chain: SPVDICTAKPRDIPMNPMCIYRSPEKKATEDEGSEQKIPEATNRRVWELSKANSRFATTFYQHLADSKNDNDNIFLSPLSISTAFAMTKLGACNDTLQQLMEVFKFDTISEKTSDQIHFFFAKLNCRLYRKANKASKLVSANRLFGDKSLTFNETYQDISELVYGAKLQPLDFKENAEQSRAAINKWVSNKTEGRITDVIPSEAINELTVLVLVNTIYFKGLWKSKFSPENTRKELFYKADGESCSASMMYQEGKFRYRRVAEGTQVLELPFKGDDITMVLILPKPEKSLAKVEKELTPEVLQEWLDELEEMMLVVHMPRFRIEDGFSLKEQLQDMGLVDLFSPEKSKLPGIVAEGRDDLYVSDAFHKAFLEVNEEGSEAAASTHLEAQGRSLNPNRVTFKANRPFLVFIREVPLNTIIFMGRVANPCVK
IC50 IIa/UFH (HCA #6) (human thrombin): 100 nM | IC50 fXa/UFH (HCA #6) (human factor Xa): 25 nM

B8: LEAI (other)
chain: SPVDICTAKPRDIPMNPMCIYRSPEKKATEDEGSEQKIPEATNRRVWELSKANSRFATTFYQHLADSKNDNDNIFLSPLSISTAFAMTKLGACNDTLQQLMEVFKFDTISEKTSDQIHFFFAKLNCRLYRKANKASKLVSANRLFGDKSLTFNETYQDISELVYGAKLQPLDFKENAEQSRAAINKWVSNKTEGRITDVIPSEAINELTVLVLVNTIYFKGLWKSKFSPENTRKELFYKADGESCSASMMYQEGKFRYRRVAEGTQVLELPFKGDDITMVLILPKPEKSLAKVEKELTPEVLQEWLDELEEMMLVVHMPRFRIEDGFSLKEQLQDMGLVDLFSPEKSKLPGIVAEGRDDLYVSDAFHKAFLEVNEEGSEAAASTALEAIGRSLNPNRVTFKANRPFLVFIREVPLNTIIFMGRVANPCVK
IC50 fXa/UFH; HCA #2 (factor Xa): 37 nM | IC50 IIa/UFH; HCA #2 (thrombin): 45 nM

B9: LEAI.479 (other)
chain: SPVDICTAKPRDIPMNPMCIYRSPEKKATEDEGSEQKIPEATNRRVWELSKANSRFATTFYQHLADSKNDNDNIFLSPLSISTAFAMTKLGACNDTLQQLMEVFKFDTISEKTSDQIHFFFAKLNCRLYRKANKASKLVSANRLFGDKSLTFNETYQDISELVYGAKLQPLDFKENAEQSRAAINKWVSNKTEGRITDVIPSEAINELTVLVLVNTIYFKGLWKSKFSPENTRKELFYKADGESCSASMMYQEGKFRYRRVAEGTQVLELPFKGDDITMVLILPKPEKSLAKVEKELTPEVLQEWLDELEEMMLVVHMPRFRIEDGFSLKEQLQDMGLVDLFSPEKSKLPGIVAEGRDDLYVSDAFHKAFLEVNEEGSEAAASTALEAWGRSLNPNRVTFKANRPFLVFIREVPLNTIIFMGRVANPCVK
IC50 fXa/UFH; HCA #3 (factor Xa): 100 nM | IC50 IIa/UFH; HCA #3 (thrombin): 280 nM

B10: LEAI.478 (other)
chain: SPVDICTAKPRDIPMNPMCIYRSPEKKATEDEGSEQKIPEATNRRVWELSKANSRFATTFYQHLADSKNDNDNIFLSPLSISTAFAMTKLGACNDTLQQLMEVFKFDTISEKTSDQIHFFFAKLNCRLYRKANKASKLVSANRLFGDKSLTFNETYQDISELVYGAKLQPLDFKENAEQSRAAINKWVSNKTEGRITDVIPSEAINELTVLVLVNTIYFKGLWKSKFSPENTRKELFYKADGESCSASMMYQEGKFRYRRVAEGTQVLELPFKGDDITMVLILPKPEKSLAKVEKELTPEVLQEWLDELEEMMLVVHMPRFRIEDGFSLKEQLQDMGLVDLFSPEKSKLPGIVAEGRDDLYVSDAFHKAFLEVNEEGSEAAASTALEASGRSLNPNRVTFKANRPFLVFIREVPLNTIIFMGRVANPCVK
IC50 fXa/UFH; HCA #4 (factor Xa): 12 nM | rsd. Xa catG; CA #12; stg1 conc 200 (factor Xa): 1% | rsd. Xa hne; CA #12; stg1 conc 200 (factor Xa): 1% | rsd. Xa no add; CA #12; stg1 conc 200 (factor Xa): 1% | IC50 IIa/UFH; HCA #4 (thrombin): 100 nM | rsd. IIa catG; CA #12; stg1 conc 200 (thrombin): 1% | rsd. IIa hne; CA #12; stg1 conc 200 (thrombin): 79% | rsd. IIa no add; CA #12; stg1 conc 200 (thrombin): 1%
